Experiment: yeast display, Sf9 membrane polyspecificity reagent, FACS + sequencing; frameworks hold sequencing errors
Procedure, shortened: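 Genes from sorted yeast were amplified by colony PCR, read by MiSeq 2 × 250 sequencing and filtered on CDR length. These cells carried a synthetic nanobody library in Saccharomyces cerevisiae BJ5465 and were sorted by FACS into low and high (top ~1%) gates on anti-HA and streptavidin fluorescence. Polyreactivity is labelled according to the gate of origin.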

Sequence	polyreactivity (PSR sort gate)
QVQLVESGGGLVQAGRSLRLSCAASGSTFVHNAMGWYRQAPGKERELVAAISRSGGRTYYADSVKGRFTISRDNAKNTVYLQMNSLKPEDTAVYDCAAGLHWTRYPSAHYLFEYWGQGTQVTVSS	high polyreactivity
QVHLVESGGGLVQAGGSLRLSCAASGRIRYYAMGWYRQAPGKERELVAAITSSGGSTYYADSVKGRFTISRDNAKNTVYLQMNSLKPEVTAVYYCIAVASLSGDYWGQGTQVTVSS	high polyreactivity
QVQLVESGGGLVQAGGSLRLSCAASGRTLKVYAMGWYRQAPGKERELVAAINNGGSTNYADSVKGRFTISRDNAKNTVYLQMNSLKPEDTAVYYCNAVYYARYRKYTYYYWGQGTQVTVSS	high polyreactivity
QVQLVESGGGLVQAGGSLRLSCAASGFIFGYNAMGWYRQAPGKESEFVAAISSSGASKYYADSVKGRFTISRDNAKNTVYLQMNSLKPEDTAVYYCAARYSWARYASTMGYWGQGTQVTVSS	high polyreactivity
QVQLVESGGGLVQAGGSLRLSSAASGSIFPANALGWYRQAPGKERELVAASTANGGSTYYADSVKGRFTISRDNAKNTVYLQMNSLKPEDTAVYYCNAYFVSGHAGGYDYWGQGTQETVSS	high polyreactivity
QVQLVESGGGLVQAGGSLRLSCAASGIIFLDNAMGWYRQAPGKERELVADITSSGGSTYYADSVKGRFTISRDNAKNTVSLQMNSLKPEDTAVYYCAATRPSYNDAESDYWGQGTQVTVSS	low polyreactivity
QVQLVESGGGLVQAGGSLRLSCAASGSIFIYYAMGGYRQEPGKERELVAAINTGGTTYYADSVKGRFTISRYNAKNTVYLQMNSLNPEDTAVYYCAKYIAYYGYVPSPWDHPGDDYWGQGTQVTVSS	low polyreactivity
QVQLVESGGGLVQAGGSLRLSCAASGSTFPGNAMGWYRQSPGKERELVAAISDGVRTSYADSVKGRFTISRDNAKNTVYLQMNSLKPEDTAVYYCNADFARQYDPHVLYITVGMDYWGQGTKVTVSS	low polyreactivity
QVQLVESGGGLVQAGGSLRIRCAASGRIFRTNAMGWYRQAPGKERELVAAISDSGADTSYADSVKGRFSISRDNAKNTDYLQMNSLKPEDTAVDYCNRGRVYYRYLKDYDYWGQGTQVTVSS	low polyreactivity
QVQLVESGGGLVQAGGSLRLSCAASGSTFSPNAMGWSRQAPGKERELVAAITYRGANTYYADSVKGRFTISRDNAKNTVYLQMNSLKPEDTAVYYCAAEYAYHHVGFGYWGQGTQVTVSS	low polyreactivity
QVQLVESGGGLVQAGGSLRLSCAASGYIFPTYGMGWYRQAPGKERELVADITNNAGSTYYADSVKGRFTISRDKAKNTVYLQMKSLKPEDTEVYYCAADAYWPYWPYSYDYWGHGTQVTVSS	low polyreactivity
QVQLVESGGGLVQAGGSLRLSCAASGFIFSYYAMGWYRQAPGKERELVATITRSGGRTYYADSVKGRFTISRDNAKNTVYLQMNSLKPEDTAVYYCAADYYYKDDSWGQGTQVTVSS	high polyreactivity
QVKLVESGRGLVQAGGSLRISCDASGSIFYYYAMGWYRQAPGKERELVAAINGGDTNYADSVKGRFTISRDNAKNTVYLQMTSLKPEDTAVYYCAAEGVTVEWDYDYWGQATQVTVSS	low polyreactivity
QVQLVESGGGLVQAGGSLRLSCAASGNTFTSYAMGWYRQAPGKERELVAAISASGSSTYYADSVKGRFTISRDNAKNTVYLQMNSLKPEDTAVYYCNAVKYRVESSYDYWGQGTQVTVSS	low polyreactivity
QVQLVESGGGLVQAGGSLRLSCSAYGRTFNSYAMGWYRQAPGKERELVATISSGGSTKYADSVKGRFTISRDNAKNTVYLQMNSLKPEDTAVYYCNKVFPNLYIYVVRGLIEMDYWGQGTQVTVSS	low polyreactivity
QVQLVESGGGLVQAGGSLRLSCAATGLTFPQYAMGWYRQAPGKEREIVAAIRSSDDRTYYADSVKGRFTISRDNAKNTVYLQLNSLKPEDTAVYYCAARVGKIGYKPRMDYWGQGTQVSVSS	high polyreactivity
QVQLVESGGGLVQAGGSLRLSCAASGSIFWPYAMGWYRQAPGKERELVAGISSGGSTYYADSVKGRFTISRDNAKNTVYLQMNSLKPEDTAVYYCAARWQWLNGYYYWGQGTQVTVSS	high polyreactivity
QVQLVESGGGLVQAGGSLRLSCAASGRIFSWYTMGWYRQAPGKERELVAIISRSGGSTYYADSVKGRFTISRDNAKNTVYLQMNSLKPEDTAVYYCNARWSFSYTVWVDSYWGLDDYWGQGTQVTVSS	high polyreactivity
QVQLVESGGGLLQAGGSLRLSCAASGVIFSWYAMGWYRQAPGKERELVAAINWSGDSTYYADSVKGRFTISRDNAKNTVYLQMNSLKPEDTAVYYCAADPSYWGDPYDYWGQGTQVTVSS	high polyreactivity
QVQLVESGGGLVQAGGSLRLSCAASGSIFRYYAMGWYRQAPGKEREFVASITYRGGRTYYADSVKGRFTISRDNAKNTVYLQLNSLKPEDTAVYYCAARTRAGAWTSKYLDYWGQGTQVTVSS	high polyreactivity
QDQLVESGGGLVQAGVSLRLSCAASGLTFPQYVMGWYRQAPGKQRELDASISSSGGNTYYADSVKGRFTISRDNAKNTVYLQMISLKPEDTAVYYCAAEYIFHYYDIFDYWGQGTQVTVSS	high polyreactivity
QVQLEESGGGLVQAAGSLRLSSAASGSTFRYYAMGWYRQAPGKDRELVAAITRSRGSTYYADSVKGRFTISRDKAKNHVYLQMNSVKQEDTEVYYCAARGQTGYYSGVGYWGQGTQVTVSS	high polyreactivity

Sequence	polyreactivity (PSR sort gate)
QVQLVESGGGLVQAGGSLRLSCAASGRIIYYYAMGWYRQAPGKERELVAAISWSGVNTYYADSVKGRFTISRDNAKNTVYLQMNSLKPEDTAVYYCAAGFAYKYSKGFWSDYWGQGTQVTVSS	high polyreactivity
QVQLVESGGGLVQAGGSLRLSCAASGRTFWYNAMGWYSPAPGKERELLAVITKSGGSTYYADSVKGRFTISRDNAKNTVYLQMNSLKPEDTAVYYCAADTYVARSNYRYRGFDYWGQGTQVTVSS	high polyreactivity
QVQLVETGGRLVQAGGSLRLSCAASGSTFDIYVIGWSRQAPGKERELVAAISRVGNTSYADSVKGRFTISRDNAKNTVYLQMNSLIPEDTAVYYCAADAPSWYDRQYDYWGQGTQVTVSS	low polyreactivity
QVQLVESGGGLVQAGGSLRLSCAASGSTFSVNAMGWYRQAPGKEREFVAAITYSGGSTYYADSVKGRFTISRDNAKNTVYLQMNSLKPEDTAVYYCNRDTRYYWKRYGYWGQGTQVTVSS	high polyreactivity
QVQIEDSGGGLVQAGGSLRLSCAASGSTLRGYAMGWYRHAPGKERELVAAISKNGGSTYYADSVKGRFTISRDKAKYTVYLQMNSLKPEDTAVYYCAAVGYYTKRRFGYWGQGTQVTVSS	high polyreactivity
QVQLVESGGGLVQAGGSLRLSSAASGRIFVVNAMGWYRQAPGKERELVAAISKSGARTYYADSVKGRFTISRDNAKNTVYLQMNSLKPEDTAVYYCAAESKGYSQSVFPYDYWGQGTQVTVSS	high polyreactivity
QVQLVESGGGLVQAGGSLRLSCAASGRIFYYYAMGWYRQAPGKERELVAAISGGGGSTYYADSVKGRFTISRDNAKNTVYLQMNSLKPEDTAVYYCAAEGAKDYTVSYDYWGQGTQVTVSS	high polyreactivity
QVQLVESGGGLVQAGGSLRLSCAASGRIFRYYAMVWYRQAPRKERELVAGITRGGTTNYADSVKGRFTISRDNAKNTVYLQMNSLKPEDTAVYYCAADTRRGIIGYDYWGQGTQVTVSS	high polyreactivity
QVQLVESGGGLVQAGGSLRLSCAASGITFTGYDMGWYRQAPGIERELVADISNGSSTDYADSVKGRFTISRDNAKKTVYLQMNSLNPEDTAVYYCAVDIDNWSEYDYWGQGTQVTVSS	low polyreactivity
QVQLVESGGGLVQAGGSLRLSSDASGSIFHTYAMGWYRQAPGKERELVAAITVSGGDTYYADSVKGRFTISRDNAKNTVYLQKISLKAEDTAVYYCAVDTTTSYTVEYDYWGQGTQVTVSS	low polyreactivity
QVQLVESGGGLVQAGGSLRLSCAASGLTFGIYTMGWYRQAPGKERELVAAINWIGTRTYYADSVKGRFTLSRDNAKNTVYLQMNSLKPEDTAVYYCATVIGYTKRKYDYWGQGTQVTVSS	high polyreactivity
QVQLVESGGGLVQAGGSLRLSCAASGNTLDAYAMGWYRQAPGKERELVASITYRGGSTYYADSVKGRFTISRDNAKNTVYLQMNSLKPEDTAVYYCAAAYQKSPITPKMDYWGQGTQVTVSS	low polyreactivity
QVQLVDSGGGLVQAGGSLRLSCAASGFTFAYYALGWYRPAPGKEREFVAAITSGGRTNYADSVKGRFTISRDNAKNTVYLQMNSLKPEDTAVYYCAKYRRGGSRHYSVFNHDYWGQGTQVTVSS	high polyreactivity
QVQLVESGGGLVQAGGSLRLSCAASGRIFRYYAKGWYRQAPGKERELVAAIRSASSTYYADSVKGRFTISRDNAKNTVYLQMNSLKPEDTAVYDCAAGLYGVYNRRYYYWGQGTQVTVSS	high polyreactivity
QVQLVESGGGLVQAGGPLRVSCAASGIIFDYNAMGWYRQAPGKERELVAAITSTDNTNYADSVKGRFTISRDNAKNTVYLQKNCLKPEDTAVYYCAACSYSRYHYSLYFDFDYWGQGTQVTVSS	low polyreactivity
QVQLVESGGVLVQAGASLRLSCAASGFTFGFYGMGWYRQAPGKERELVARITWRSGSTYYADSVKGRFTISRDNAKNTVYLQMNSLKPEDTAVYYCNKVPSYDFLGMDYWGLGTQVTVSS	low polyreactivity
QVQLVESGGGLVQAGGSLRLSCAASGYTFAGYAMGWYRQAPGKERELVAAISSSGGRTYYADSVKGRFTISRDNAKNTVDLQINSLKPEDTAVYYCAAYVWAYYVPYNYGYWGQGTQVTVSS	high polyreactivity
QVQLVESGGGLVQAGGSLRLSCAASGSIFLSNAMGWYRQAPGKEREMVAIRKSTGSTYYADSVKGRFTISRDNAKNTVYLQMYSLKPEDTAVYYCNAGGWNAYRYRAYDYGGQGTQVTVSS	high polyreactivity
QVQLVESGGGLVQAGGSLRLSCAASGRTFDGYDMGWYRQAPGQERELVAAINVVGGSTYYADSVKGRFTISRDNAKNTVYLQMNSLKPEDTAVYYCAADDYIYTVYSYTYEYWGQGTQVTVSS	low polyreactivity
QVQLVESGGGLVQAGGSLRLSCSASGSIFRSNAIGWYRQAPGKERELGAAISWSNDSTYYADSVKGRFTISRDNAKNTVYLQMNSLKPEDSAVYYCAAVGSGRYSGYDFLGQGTQVTVSS	high polyreactivity
PVQLQESGGGLVQAGGSLRLSCAARGSIFKVVDMGLYRQAPAKEREFVATIGEGGNTYYADSVKGRFTISRDNAKNTVYLQMNSLKPEDTAVYFSAVVLGTSYRYTYWGQGTQVTVSS	low polyreactivity

Source: the nanobody polyreactivity screen of Harvey et al. (2022)
